# Results published in the supplement of paper PMC10724198.
# ± gives the standard deviation of the averaged measurements.
# Test system: Saccharomyces cerevisiae
# Experiment: protein stability index of tFT-peptide fusion (C-terminal peptide) (PSI (0-1 scale)); higher = more stable (slower turnover)
# Conditions: genetic background: wild type; temperature: 30 C
# Experimental: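 Multiplexed protein stability (MPS) profiling in S. cerevisiae. Random 12-aa peptides (tFT-X12 library) are fused to the C-terminus of a sfGFP-mCherry tandem fluorescent timer, after mCherry and a GGGS linker. Cells are FACS-sorted into 8 mCherry/sfGFP bins and deep-sequenced. The protein stability index (PSI) is the read-weighted bin average, scaled from 0 (unstable) to 1 (stable). Only peptides with >10 reads are reported; cells were grown at 30 °C in SC-His with glucose.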
# 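Note: PSI is a weighted mean of sequencing reads over stability bins, variants kept only with over 10 reads, mCherry proximal and sfGFP distal, peptide attached via GGGS linker.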
row,Sequence,protein stability index
1,CVDAFLVRLVFM,0.568 ± 0.013
2,CVGLGGPPGGCG,0.603 ± 0.091
3,CVIVCETYFQCA,0.53 ± 0.0088
4,CVLRTSQPSCPG,0.627 ± 0.023
5,CVLSFVRGCLGA,0.587 ± 0.067
6,CVRPSFMSRSLR,0.719 ± 0.064
7,CVRRKYIGGGEG,0.673 ± 0.025
8,CVSTYLTCSITS,0.54 ± 0.022
9,CWGVGGRTVING,0.671 ± 0.049
10,CYAVEACWASCA,0.597 ± 0.0087
11,CYMFFNPSFNRR,0.712 ± 0.017
12,CYPFSGLWPPPP,0.717 ± 0.018
13,CYVGALQKCGTR,0.674 ± 0.01
14,DAELYLPSPTRL,0.666 ± 0.064
15,DAGRLLIVSVDS,0.662 ± 0.036
16,DAPEKQDKHINE,0.719 ± 0.088
17,DCFSASIHYCPS,0.714 ± 0.059
18,DCLRQTVPEGAM,0.723 ± 0.069
19,DCYFNVHFKSIG,0.654 ± 0.074
20,DDATLAVCRGWV,0.731 ± 0.028
21,DDFPNKHVEPKA,0.658 ± 0.014
22,DDGGSVTERDKS,0.649 ± 0.007
23,DDPGPSTHPRSA,0.63 ± 0.0069
24,DDWCLVGGLCDC,0.684 ± 0.033
25,DDWNLQEAQSLY,0.703 ± 0.053

row,Sequence,protein stability index
1,DERREADLYPGE,0.648 ± 0.059
2,DERSWLPLFFST,0.695 ± 0.035
3,DESWCVPCPSSL,0.648 ± 0.0065
4,DETRQTYRNRKG,0.728 ± 0.12
5,DEVLVSGGKWWE,0.73 ± 0.1
6,DFCPVYRVIIWN,0.646 ± 0.029
7,DFSNDCLRVLGD,0.673 ± 0.021
8,DFSSLIISFPFI,0.627 ± 0.059
9,DFVGVVGFLVAG,0.65 ± 0.032
10,DGARECRDDVCS,0.675 ± 0.017
11,DGAVRLGVGGLG,0.682 ± 0.041
12,DGCLTKPGQCHG,0.646 ± 0.013
13,DGGGGGGAPRVR,0.715 ± 0.11
14,DGGRGQGMLGGS,0.662 ± 0.063
15,DGGSGQGMFGGS,0.611 ± 0.039
16,DGKNSGHGLAKT,0.702 ± 0.087
17,DGSFWKGQGAGV,0.671 ± 0.011
18,DGTTAIAGPHPT,0.629 ± 0.052
19,DGVQTVPFSCRL,0.773 ± 0.28
20,DHIALIWGCSNF,0.703 ± 0.06
21,DIAFFEGSGGTM,0.675 ± 0.096
22,DIRRSSMFKPKS,0.702 ± 0.074
23,DIYNRNKRRDIT,0.644 ± 0.0067
24,DKGTDKDDVKIM,0.686 ± 0.011
25,DLCLRSTLPLFL,0.585 ± 0.016

row,Sequence,protein stability index
1,DLCSPWGVDGVK,0.696 ± 0.00079
2,DLILECRYEVGV,0.667 ± 0.053
3,DLLAVPALTLHL,0.677 ± 0.14
4,DLLYGLAMSLSN,0.704 ± 0.012
5,DLQKKKEILSQK,0.707 ± 0.029
6,DLSFVLAPFVSP,0.6683 ± 0.0038
7,DLSVSDGCVAFG,0.64 ± 0.048
8,DLTRALQAGHDR,0.695 ± 0.039
9,DLVNTVCTVLDN,0.6836 ± 0.0039
10,DLWTRGAVHRKA,0.6756 ± 0.0061
11,DMDLAVTRHIRS,0.718 ± 0.1
12,DPAHPRPFDCPL,0.709 ± 0.013
13,DPLIILLSSVKL,0.718 ± 0.0099
14,DPPPLPPAHSAS,0.658 ± 0.034
15,DPVGFSEMYLRV,0.705 ± 0.0078
16,DQLETTSAPLPG,0.711 ± 0.044
17,DQRRKKKPIKGN,0.736 ± 0.12
18,DQRRWLWGGILK,0.707 ± 0.018
19,DRFLPPALVMYI,0.566 ± 0.038
20,DRGWPHTYNTIL,0.639 ± 0.1
21,DRHLNRPRVKKR,0.758 ± 0.076
22,DRPDLVLAGVCG,0.756 ± 0.06
23,DRRETASGVSVR,0.682 ± 0.025
24,DRRRVIIKENKA,0.675 ± 0.024
25,DRTNIIGVIDDL,0.753 ± 0.05

row,Sequence,protein stability index
1,DRVGGCESRAGR,0.651 ± 0.04
2,DSFGSERYEPCK,0.622 ± 0.0097
3,DSFLFVPREVAD,0.687 ± 0.013
4,DSRFMLYIHSSR,0.7132 ± 0.0038
5,DSSGATGLLYML,0.746 ± 0.022
6,DSSYVYHFRCVS,0.62055 ± 0.00019
7,DTDDARGVWGSV,0.7151 ± 0.0058
8,DTFLGSLFIFIR,0.522 ± 0.011
9,DTSENSVKFTKV,0.733 ± 0.075
10,DTVTGNWGVGLG,0.657 ± 0.02
11,DTWRADKRGMKV,0.662 ± 0.052
12,DVAEAGPRPPPT,0.755 ± 0.091
13,DVFCFWCVSGFV,0.651 ± 0.082
14,DVGISICLLHGA,0.6664 ± 0.002
15,DVGIVPGVFWWV,0.738 ± 0.054
16,DVISRSTRIMGE,0.617 ± 0.018
17,DVLESPVLYPTN,0.70948 ± 7.6e-05
18,DVSSRDLCWLVC,0.6422 ± 0.0052
19,DVVFRLAFTDFC,0.693 ± 0.021
20,DVVGRGRGPVRL,0.802 ± 0.033
21,DVYFHTRSCGTP,0.688 ± 0.016
22,DVYLVGLGVWSS,0.668 ± 0.035
23,DWVLGRRDTRKP,0.752 ± 0.025
24,DWYSGVTYGPCS,0.78 ± 0.062
25,DYRTLGPAPDKS,0.74 ± 0.035

row,Sequence,protein stability index
1,EAGRRVGARRVG,0.689 ± 0.059
2,EAKKKKRRDRKE,0.621 ± 0.029
3,EALKCFADAYTC,0.661 ± 0.063
4,EAQWRGVRHHSR,0.641 ± 0.036
5,EARRGTAGGQKK,0.626 ± 0.039
6,EASSRITFGLII,0.698 ± 0.041
7,ECGAGRVYGDPW,0.652 ± 0.063
8,EEGAGLLWSAVG,0.641 ± 0.014
9,EEGVARYVERWV,0.675 ± 0.0075
10,EERGESRGWRVK,0.604 ± 0.045
11,EERHAEPRNCMF,0.773 ± 0.015
12,EEVAISFFFLSL,0.468 ± 0.055
13,EEWGSLEWTAGR,0.778 ± 0.019
14,EEYFFVNLFFAS,0.752 ± 0.085
15,EGACPFLSFRGF,0.658 ± 0.024
16,EGGESRGKGYRS,0.691 ± 0.025
17,EGGGAGGLMRPE,0.65 ± 0.016
18,EGGGGGAGDARR,0.685 ± 0.017
19,EGGGGVEGAAWG,0.694 ± 0.022
20,EGGGWGRYDGFG,0.69378 ± 9.6e-05
21,EGGPRTGGRGSR,0.67 ± 0.035
22,EGHREARGGMAR,0.673 ± 0.018
23,EGINVEICISLL,0.573 ± 0.083
24,EGMENECDLRIK,0.74 ± 0.066
25,EGPPYSRYKGGS,0.645 ± 0.11

row,Sequence,protein stability index
1,EGRGQRGARAAQ,0.7181 ± 0.0034
2,EGVSNGCAILLF,0.673 ± 0.029
3,EGWPGGRGGAGL,0.614 ± 0.032
4,EIGWEGLEGRGG,0.756 ± 0.11
5,EIGWTEGGECVG,0.632 ± 0.051
6,EKGAEGDHGEVR,0.678 ± 0.017
7,EKGRVGLKIIKE,0.695 ± 0.038
8,EKGWFDLGGCQV,0.723 ± 0.035
9,EKHLKKEIQIKK,0.76 ± 0.07
10,EKIRGFPGEIGE,0.694 ± 0.022
11,EKKKEKHKDQEK,0.692 ± 0.055
12,EKKKKENKVKRF,0.664 ± 0.013
13,EKKKKNKNQEKQ,0.671 ± 0.044
14,EKKKNKTQLKTK,0.667 ± 0.024
15,EKKNGKEKEKER,0.6647 ± 0.0062
16,EKKRQKKQKTGK,0.67136 ± 0.00051
17,EKKTNEKNSYNL,0.659 ± 0.016
18,EKPIPFCSSVAS,0.713 ± 0.063
19,EKVWTLTGLSHL,0.722 ± 0.04
20,EKYGKKIRRKNR,0.766 ± 0.11
21,ELELDRTEWVTI,0.799 ± 0.05
22,ELFGSGERRVVV,0.68 ± 0.014
23,ELGVGVLDRGCL,0.608 ± 0.22
24,ELLTCSSSVMLL,0.799 ± 0.026
25,ELPECEHLTSLT,0.691 ± 0.068

row,Sequence,protein stability index
1,ELRCEMEFWCER,0.594 ± 0.0066
2,ELRSYAGMSGFN,0.736 ± 0.014
3,ELSARVCLGSLF,0.676 ± 0.015
4,ELVRIVREEYRC,0.685 ± 0.1
5,EMGGLKACRGGG,0.553 ± 0.026
6,EMGTTMATPCDH,0.681 ± 0.0073
7,ENGRRTDKKVST,0.687 ± 0.023
8,ENNWILSIKEKT,0.747 ± 0.02
9,ENQGQKQKKKKR,0.753 ± 0.046
10,ENQGQSYVTMRY,0.725 ± 0.046
11,EPESPVTARAKP,0.672 ± 0.031
12,EPLLVSPATPNL,0.7311 ± 0.00091
13,EPMHTLKSIITH,0.635 ± 0.073
14,EPNKGTNMKVND,0.705 ± 0.048
15,EPNSPTYLSMLI,0.637 ± 0.018
16,EQGAGFWVGGEV,0.757 ± 0.099
17,EQSERINKKARK,0.67 ± 0.063
18,EQSWEVWGRGQG,0.744 ± 0.022
19,ERAGPGGARRVD,0.696 ± 0.018
20,ERALYGFSSIFY,0.667 ± 0.075
21,ERASGNWQVYKG,0.639 ± 0.011
22,EREREKGEEEEG,0.629 ± 0.0079
23,ERERREGEGKRQ,0.721 ± 0.023
24,ERGGLGLSRCVS,0.663 ± 0.077
25,ERHTASGHLLFV,0.729 ± 0.14

row,Sequence,protein stability index
1,ERLKRNKKSTNG,0.726 ± 0.018
2,ERMLHGTATSVW,0.736 ± 0.046
3,ERRGRDRSQTLR,0.715 ± 0.014
4,ERRKKKRGQETQ,0.655 ± 0.12
5,ERRPTYFFHDHE,0.693 ± 0.055
6,ERRPYVAGRRRF,0.6722 ± 0.0049
7,ERSQTKIANDKK,0.719 ± 0.042
8,ERSVSDSHERID,0.678 ± 0.05
9,ESASSLNFTSLM,0.731 ± 0.053
10,ESCIKGCSGVVS,0.651 ± 0.06
11,ESCLVSKFDVIV,0.656 ± 0.052
12,ESIEVGTGDWGG,0.673 ± 0.053
13,ESKERKTRKLKK,0.677 ± 0.048
14,ESLAKLPLRRPR,0.63 ± 0.011
15,ESLFFPFAFSSV,0.809 ± 0.13
16,ESQYAIFGHDIW,0.709 ± 0.011
17,ESRVLYGLCLWC,0.596 ± 0.028
18,ESSQLELRGGGR,0.725 ± 0.0047
19,ESVVKNDVTYVQ,0.691 ± 0.041
20,ETEGSSSLGTRI,0.661 ± 0.021
21,ETHRANTRMERL,0.726 ± 0.049
